# Measurements from publication PMC11934925.
# T1: FLI1 F362A 259-399 (UniProt Q01543 259-399, F362A)
# T1 sequence: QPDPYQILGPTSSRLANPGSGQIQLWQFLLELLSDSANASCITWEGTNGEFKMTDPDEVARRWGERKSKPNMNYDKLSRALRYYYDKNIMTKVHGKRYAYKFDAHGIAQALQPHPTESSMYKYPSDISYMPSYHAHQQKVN
# T2: FLI1 F362A 259-375 (UniProt Q01543 259-375, F362A)
# T2 sequence: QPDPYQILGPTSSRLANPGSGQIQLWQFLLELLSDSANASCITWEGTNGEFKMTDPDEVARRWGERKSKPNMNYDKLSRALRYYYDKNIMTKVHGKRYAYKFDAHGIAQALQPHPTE
# T3: FLI1 F362A 259-371 (UniProt Q01543 259-371, F362A)
# T3 sequence: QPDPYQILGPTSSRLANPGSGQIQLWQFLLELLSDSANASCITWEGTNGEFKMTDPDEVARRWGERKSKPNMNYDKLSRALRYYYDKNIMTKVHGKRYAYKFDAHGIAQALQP
# T4: FLI1 F362A 276-399 (UniProt Q01543 276-399, F362A)
# T4 sequence: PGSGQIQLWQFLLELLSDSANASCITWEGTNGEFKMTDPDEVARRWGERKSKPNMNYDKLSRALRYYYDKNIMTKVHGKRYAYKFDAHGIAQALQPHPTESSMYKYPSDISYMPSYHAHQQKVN
# T5: FLI1 F362A 276-375 (UniProt Q01543 276-375, F362A)
# T5 sequence: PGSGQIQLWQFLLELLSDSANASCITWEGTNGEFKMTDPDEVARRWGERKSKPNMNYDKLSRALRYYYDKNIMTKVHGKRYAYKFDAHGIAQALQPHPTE
# T6: FLI1 276-375 N329E/D333G (UniProt Q01543 276-375, N329E;D333G;F362A)
# T6 sequence: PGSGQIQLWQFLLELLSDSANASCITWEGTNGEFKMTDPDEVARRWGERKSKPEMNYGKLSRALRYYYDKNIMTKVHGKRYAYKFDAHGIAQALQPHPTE
# T7: FLI1 276-375 N329E (UniProt Q01543 276-375, N329E;F362A)
# T7 sequence: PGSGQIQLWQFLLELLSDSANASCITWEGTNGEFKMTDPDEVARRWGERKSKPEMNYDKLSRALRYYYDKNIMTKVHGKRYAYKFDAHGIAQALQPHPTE
# T8: FLI1 276-375 D333G (UniProt Q01543 276-375, D333G;F362A)
# T8 sequence: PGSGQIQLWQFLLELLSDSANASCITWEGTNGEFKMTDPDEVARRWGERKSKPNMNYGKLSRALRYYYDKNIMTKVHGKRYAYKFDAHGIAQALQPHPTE
# T9: FLI1 276-371 (UniProt Q01543 276-371)
# T9 sequence: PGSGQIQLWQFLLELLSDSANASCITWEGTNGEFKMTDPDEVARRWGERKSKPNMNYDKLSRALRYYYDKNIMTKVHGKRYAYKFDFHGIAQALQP
# T10: FLI1 DBD 259-399 WT (UniProt Q01543 259-399)
# T10 sequence: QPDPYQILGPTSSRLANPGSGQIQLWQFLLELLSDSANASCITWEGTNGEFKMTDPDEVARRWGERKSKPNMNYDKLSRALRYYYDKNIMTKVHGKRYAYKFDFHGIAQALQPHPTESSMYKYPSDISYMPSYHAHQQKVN
# Tests used:
# [1] = target: T1, FLI1 F362A 259-399; test: fluorescence anisotropy
# [2] = target: T2, FLI1 F362A 259-375; test: fluorescence anisotropy
# [3] = target: T3, FLI1 F362A 259-371; test: fluorescence anisotropy
# [4] = target: T4, FLI1 F362A 276-399; test: fluorescence anisotropy
# [5] = target: T5, FLI1 F362A 276-375; test: fluorescence anisotropy
# [6] = target: T6, FLI1 276-375 N329E/D333G; test: fluorescence anisotropy
# [7] = target: T7, FLI1 276-375 N329E; test: fluorescence anisotropy
# [8] = target: T8, FLI1 276-375 D333G; test: fluorescence anisotropy
# [9] = target: T9, FLI1 276-371; test: fluorescence anisotropy
# [10] = target: T2, FLI1 F362A 259-375; test: fluorescence anisotropy; remark: listed apart in the source
# [11] = target: T6, FLI1 276-375 N329E/D333G; test: fluorescence anisotropy; remark: listed apart in the source
# [12] = target: T3, FLI1 F362A 259-371; test: fluorescence anisotropy; remark: listed apart in the source
# [13] = target: T4, FLI1 F362A 276-399; test: fluorescence anisotropy; remark: listed apart in the source
# [14] = target: T7, FLI1 276-375 N329E; test: fluorescence anisotropy; remark: listed apart in the source
# [15] = target: T5, FLI1 F362A 276-375; test: fluorescence anisotropy; remark: listed apart in the source
# [16] = target: T9, FLI1 276-371; test: EMSA
# [17] = target: T5, FLI1 F362A 276-375; test: EMSA
# [18] = target: T1, FLI1 F362A 259-399; test: EMSA
# [19] = target: T4, FLI1 F362A 276-399; test: EMSA
# [20] = target: T10, FLI1 DBD 259-399 WT; test: X-ray crystallography
# [21] = target: T1, FLI1 F362A 259-399; test: X-ray crystallography
# [22] = target: T1, FLI1 F362A 259-399; test: X-ray crystallography; remark: listed apart in the source
# [23] = target: T2, FLI1 F362A 259-375; test: X-ray crystallography
binder,measurement,setting,value
2site_weak-weak (w-w) (dsDNA) DNA 1: CAGAAAGGAAGGAAGTG DNA 2: CACTTCCTTCCTTTCTG,binding signal,[1],41 ± 21 cooperativity factor w
same,binding signal,[2],103 ± 26 cooperativity factor w
same,binding signal,[3],22 ± 7 cooperativity factor w
same,binding signal,[4],16 ± 10 cooperativity factor w
same,binding signal,[5],33 ± 20 cooperativity factor w
same,binding signal,[6],~1 cooperativity factor w
same,binding signal,[7],6 ± 6 cooperativity factor w
same,binding signal,[8],~1 cooperativity factor w
1site_weak (dsDNA) DNA 1: TTGAAGGAAGAG DNA 2: CTCTTCCTTCAA,Kd,[9],402 ± 172 nM
same,Kd,[10],544 ± 288 nM
same,Kd,[11],126 ± 14 nM
same,Kd,[12],1010 ± 421 nM
same,Kd,[13],146 ± 37 nM
same,Kd,[14],275 ± 39 nM
same,Kd,[15],137 ± 34 nM
2site_strong-weak (s-w) (dsDNA) DNA 1: CAGACCGGAAGGAAGTG DNA 2: CACTTCCTTCCGGTCTG,binding result,[16],binds
same,binding result,[17],binds
same,binding result,[18],binds
same,binding result,[19],binds
2sites (dsDNA) DNA 1: GACCGGAAGGAAGTG DNA 2: CACTTCCTTCCGGTC,binding result,[20],binds
same,binding result,[21],binds
4sites (dsDNA) DNA 1: GACCGGAAGGAAGGAAGGAAGTGCG DNA 2: CGCACTTCCTTCCTTCCTTCCGGTC,binding result,[22],binds
3sites (dsDNA) DNA 1: GACCGGAAGGAAGGAAGTG DNA 2: CACTTCCTTCCTTCCGGTC,binding result,[23],binds
